Substitutions are numbered along the chain they refer to. In names and notes the source's numbering stands.
B1: (des N121) Met-FGF21 (ligand)
chain: MHPIPDSSPLLQFGGQVRQRYLYTDDAQQTEAHLEIREDGTVGGAADQSPESLLQLKALKPGVIQILGVKTSRFLCQRPDGALYGSLHFDPEACSFRELLLEDGYNVYQSEAHGLPLHLPGKSPHRDPAPRGPARFLPLPGLPPALPEPPGILAPQPPDVGSSDPLSMVGPSQGRSPSYAS
B2: (D102N) Met-FGF21 (ligand)
chain: MHPIPDSSPLLQFGGQVRQRYLYTDDAQQTEAHLEIREDGTVGGAADQSPESLLQLKALKPGVIQILGVKTSRFLCQRPDGALYGSLHFDPEACSFRELLLENGYNVYQSEAHGLPLHLPGNKSPHRDPAPRGPARFLPLPGLPPALPEPPGILAPQPPDVGSSDPLSMVGPSQGRSPSYAS
B3: K122C Met-FGF21 derivative of Example 4 (ligand)
chain: B2 chain with N103D, K123C
modifications: S-122-[1-(2-{2-[2-(2-{2-[2-(2-{2-[(S)-4-carboxy-4-(17-carboxy-heptadecanoylamino)-butyrylamino]-ethoxy}-ethoxy)-acetylamino]-ethoxy}-ethoxy)-acetylamino]-ethylcarbamoyl}-ethyl)-2,5-dioxo-pyrrolidin-3-yl] on the thiol of Cys122
B4: S71C Met-FGF21 derivative of Example 14 (ligand)
chain: B2 chain with S72C, N103D
modifications: S-71-({2-[2-(2-{2-[2-(2-{2-[(S)-4-carboxy-4-(17-carboxy-heptadecanoylamino)-butyrylamino]-ethoxy}-ethoxy)-acetylamino]-ethoxy}-ethoxy)-acetylamino]-ethylcarbamoyl}-methyl) on the thiol of Cys71
B5: (179F, 180E, 181R) Met-FGF21 (ligand)
chain: B2 chain with N103D, Y180F, A181E, S182R
B6: M168L Met-FGF21 (ligand)
chain: B2 chain with N103D, M169L
B7: (K56R, K59R, K69R, K122R) Met-FGF21 derivative of Example 7 (ligand)
chain: B2 chain with K57R, K60R, K70R, N103D, K123R
modifications: N-alpha-1-[2-(2-{2-[2-(2-{2-[(S)-4-carboxy-4-(17-carboxy-heptadecanoylamino)-butyrylamino]-ethoxy}-ethoxy)-acetylamino]-ethoxy}-ethoxy)-acetyl] on the alpha amino group of the N-terminal Met
B8: D102T Met-FGF21 (ligand)
chain: B2 chain with N103T
B9: (D24K) Met-FGF21 (ligand)
chain: B2 chain with D25K, N103D
B10: S71C Met-FGF21 (ligand)
chain: B2 chain with S72C, N103D
B11: Q27E Met-FGF21 (ligand)
chain: B2 chain with Q28E, N103D
B12: (N121D) Met-FGF21 (ligand)
chain: B2 chain with N103D, N122D
B13: S71C Met-FGF21 derivative of Examples 6 and 12 (ligand)
chain: B2 chain with S72C, N103D
modifications: S-71-({2-[2-(2-{2-[2-(2-{2-[(S)-4-carboxy-4-(19-carboxy-nonadecanoylamino)-butyrylamino]-ethoxy}-ethoxy)-acetylamino]-ethoxy}-ethoxy)-acetylamino]-ethylcarbamoyl}-methyl) on the thiol of Cys71
B14: (M168A) Met-FGF21 (ligand)
chain: B2 chain with N103D, M169A
B15: (N121Q) Met-FGF21 (ligand)
chain: B2 chain with N103D, N122Q
B16: A26E Met-FGF21 (ligand)
chain: B2 chain with A27E, N103D
B17: (M168S) Met-FGF21 (ligand)
chain: B2 chain with N103D, M169S
B18: (Q15F) Met-FGF21 (ligand)
chain: B2 chain with Q16F, N103D
B19: (Q28R, A31 E) Met-FGF21 (ligand)
chain: B2 chain with Q29R, A32E, N103D
B20: S71C Met-FGF21 derivative of Example 13 (ligand)
chain: B2 chain with S72C, N103D
modifications: S-71-[1-(2-{2-[2-(2-{2-[2-(2-{2-[(S)-4-carboxy-4-(17-carboxy-heptadecanoylamino)-butyrylamino]-ethoxy}-ethoxy)-acetylamino]-ethoxy}-ethoxy)-acetylamino]-ethylcarbamoyl}-ethyl)-2,5-dioxo-pyrrolidin-3-yl] on the thiol of Cys71
B21: S71C Met-FGF21 derivative of Example 5 (ligand)
chain: B2 chain with S72C, N103D
modifications: S-71-[1-(2-{2-[2-(2-{2-[2-(2-{2-[(S)-4-carboxy-4-(19-carboxy-nonadecanoylamino)-butyrylamino]-ethoxy}-ethoxy)-acetylamino]-ethoxy}-ethoxy)-acetylamino]-ethylcarbamoyl}-ethyl)-2,5-dioxo-pyrrolidin-3-yl] on the thiol of Cys71
B22: (-1G, 71C, 166F, 167G, 168L, 169aT, 171L, 172E, 173A, 174V, 179F, 180E, 181K) FGF21 derivative of Example 15 (ligand)
chain: GHPIPDSSPLLQFGGQVRQRYLYTDDAQQTEAHLEIREDGTVGGAADQSPESLLQLKALKPGVIQILGVKTCRFLCQRPDGALYGSLHFDPEACSFRELLLEDGYNVYQSEAHGLPLHLPGNKSPHRDPAPRGPARFLPLPGLPPALPEPPGILAPQPPDVGSSDPFGLVTGLEAVRSPSFEK
modifications: S-71-({2-[2-(2-{2-[2-(2-{2-[(S)-4-carboxy-4-(17-carboxy-heptadecanoylamino)-butyrylamino]-ethoxy}-ethoxy)-acetylamino]-ethoxy}-ethoxy)-acetyl-amino]-ethylcarbamoyl}-methyl) on the thiol of Cys71
B23: (169aT, 171L, 172E, 173A, 174V, 179F, 180E, 181K) Met-FGF21 (ligand)
chain: B22 chain with G1M, C72S, F167L, G168S, L169M
B24: (S71C, N121Q, L166F, S167G, M168L, 169aT, P171L, S172E, Q173A, G174V, Y179F, A180E, S181K) Ala-FGF21 (ligand)
chain: B22 chain with G1A, N122Q
B25: (S71C, D102E, N121Q, L166F, S167G, M168L, 169aT, P171L, S172E, Q173A, G174V, Y179F, A180E, S181K) Ala-FGF21 (ligand)
chain: B22 chain with G1A, D103E, N122Q
B26: (166F, 167G, 168L, 169aT, 171L, 172E, 173A, 174V, 179F, 180E, 181K) (Compound Z) (ligand)
chain: B22 chain with G1M, C72S
B27: (-14E, -13E, -12A, -11E, -10A, -9G, -8G, -7A, -6G, -5G, -4S, -3G, -2G, -1S, K56R, 59R, 69R, 122R) FGF21 derivative of Example 51 (ligand)
chain: EEAEAGGAGGSGGSHPIPDSSPLLQFGGQVRQRYLYTDDAQQTEAHLEIREDGTVGGAADQSPESLLQLRALRPGVIQILGVRTSRFLCQRPDGALYGSLHFDPEACSFRELLLEDGYNVYQSEAHGLPLHLPGNRSPHRDPAPRGPARFLPLPGLPPALPEPPGILAPQPPDVGSSDPLSMVGPSQGRSPSYAS
modifications: N-alpha-1-[(S)-4-carboxy-4-(17-carboxy-heptadecanoylamino)-butyryl] on the N-terminal alpha amino group
B28: (145aP, 145bM, L146V, P149E, G151E, I152D, A154R, P155G, Q156H, P157L, P158E, D159S, V160D, G161M, S162F, D164S, S167E, M168T, V169D, G170S, P171M, S172D, … (ligand)
chain: MHPIPDSSPLLQFGGQVRQRYLYTDDAQQTEAHLEIREDGTVGGAADQSPESLLQLKALKPGVIQILGVKTSRFLCQRPDGALYGSLHFDPEACSFRELLLEDGYNVYQSEAHGLPLHLPGNKSPHRDPAPRGPARFLPLPGLPPAPMVPEEPEDLRGHLESDMFSSPLETDSMDPFGLVTGLEAVRSPSFEK

These binders were tested against T1, human beta-Klotho (human, UniProt Q86Z14 1-1044) (assay: cell-based or functional assay).
T1 sequence (looked up): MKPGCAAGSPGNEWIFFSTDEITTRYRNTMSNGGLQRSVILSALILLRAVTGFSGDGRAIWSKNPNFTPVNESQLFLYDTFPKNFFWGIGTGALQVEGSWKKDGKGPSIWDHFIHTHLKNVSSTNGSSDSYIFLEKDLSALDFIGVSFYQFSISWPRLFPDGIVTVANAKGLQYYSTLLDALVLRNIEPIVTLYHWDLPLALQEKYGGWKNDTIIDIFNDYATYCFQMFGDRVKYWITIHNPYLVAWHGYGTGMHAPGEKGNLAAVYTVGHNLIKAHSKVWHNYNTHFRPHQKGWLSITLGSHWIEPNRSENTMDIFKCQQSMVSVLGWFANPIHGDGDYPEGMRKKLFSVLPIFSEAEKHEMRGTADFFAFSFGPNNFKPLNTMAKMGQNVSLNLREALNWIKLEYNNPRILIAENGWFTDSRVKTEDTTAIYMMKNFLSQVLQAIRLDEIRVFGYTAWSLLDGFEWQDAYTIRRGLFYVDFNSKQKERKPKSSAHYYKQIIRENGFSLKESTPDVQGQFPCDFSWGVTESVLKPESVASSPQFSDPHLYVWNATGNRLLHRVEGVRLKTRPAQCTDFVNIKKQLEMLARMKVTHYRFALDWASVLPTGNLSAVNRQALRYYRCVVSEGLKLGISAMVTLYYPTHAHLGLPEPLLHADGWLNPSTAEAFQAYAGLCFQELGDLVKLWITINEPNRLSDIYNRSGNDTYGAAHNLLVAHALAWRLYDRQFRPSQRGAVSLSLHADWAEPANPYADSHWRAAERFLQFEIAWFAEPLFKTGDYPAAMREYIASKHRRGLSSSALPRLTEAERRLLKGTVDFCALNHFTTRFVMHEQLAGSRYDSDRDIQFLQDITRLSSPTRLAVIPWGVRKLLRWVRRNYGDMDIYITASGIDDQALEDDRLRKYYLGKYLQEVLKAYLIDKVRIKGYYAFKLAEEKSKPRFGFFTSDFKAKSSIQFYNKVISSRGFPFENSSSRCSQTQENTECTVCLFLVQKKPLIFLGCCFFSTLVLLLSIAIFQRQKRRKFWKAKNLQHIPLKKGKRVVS

First: B1
Second: B2
The “pERK-HEK293-Beta-klotho without HSA [EC50 (nM)] Median Value” (“pERK-HEK293-Beta-klotho without HSA” below) of the first is higher: 1 nM for the first, 0.7 nM for the second.

First: B3
Second: B4
The “pERK-HEK293-Beta-klotho without HSA” value of the first is lower: 0.9 nM for the first, 2.9 nM for the second.

Going from B5 to B6, the “pERK-HEK293-Beta-klotho without HSA” value falls from 5.9 nM to 1.4 nM.

Going from B7 to B8, the “pERK-HEK293-Beta-klotho without HSA” value rises from 1.4 nM to 1.7 nM.

Compared with B9, B10 is lower in “pERK-HEK293-Beta-klotho without HSA” value: 6.7 nM for the first, 3 nM for the second.

Going from B11 to B12, the “pERK-HEK293-Beta-klotho without HSA” value falls from 2.2 nM to 1.2 nM.

Compared with B13, B14 is higher in “pERK-HEK293-Beta-klotho without HSA” value: 1.5 nM for the first, 100 nM for the second.

First: B15
Second: B16
The “pERK-HEK293-Beta-klotho without HSA” value of the first is lower: 1 nM for the first, 4.7 nM for the second.

Compared with B17, B18 is lower in “pERK-HEK293-Beta-klotho without HSA” value: 100 nM for the first, 3.3 nM for the second.

Compared with B19, B20 is higher in “pERK-HEK293-Beta-klotho without HSA” value: 1 nM for the first, 4.8 nM for the second.

Going from B21 to B22, the “pERK-HEK293-Beta-klotho without HSA” value rises from 1.1 nM to 1.6 nM.

Compared with B23, B24 is lower in “pERK-HEK293-Beta-klotho without HSA” value: 3.9 nM for the first, 2 nM for the second.

Compared with B25, B26 is lower in “pERK-HEK293-Beta-klotho without HSA” value: 3.3 nM for the first, 1 nM for the second.

First: B27
Second: B28
The “pERK-HEK293-Beta-klotho without HSA” value of the first is lower: 12 nM for the first, 17 nM for the second.

— US20100216715A1 (Novo Nordisk, published 2010)
